B1: APG7: yeast GST-HisX6 fusion protein on proteome chip (protein, UniProt P38862 1-630, looked up)
Ubiquitin-like …: MSSERVLSYAPAFKSFLDTSFFQELSRLKLDVLKLDSTCQPLTVNLDLHNIPKSADQVPLFLTNRSFEKHNNKRTNEVPLQGSIFNFNVLDEFKNLDKQLFLHQRALECWEDGIKDINKCVSFVIISFADLKKYRFYYWLGVPCFQRPSSTVLHVRPEPSLKGLFSKCQKWFDVNYSKWVCILDADDEIVNYDKCIIRKTKVLAIRDTSTMENVPSALTKNFLSVLQYDVPDLIDFKLLIIRQNEGSFALNATFASIDPQSSSSNPDMKVSGWERNVQGKLAPRVVDLSSLLDPLKIADQSVDLNLKLMKWRILPDLNLDIIKNTKVLLLGAGTLGCYVSRALIAWGVRKITFVDNGTVSYSNPVRQALYNFEDCGKPKAELAAASLKRIFPLMDATGVKLSIPMIGHKLVNEEAQHKDFDRLRALIKEHDIIFLLVDSRESRWLPSLLSNIENKTVINAALGFDSYLVMRHGNRDEQSSKQLGCYFCHDVVAPTDSLTDRTLDQMCTVTRPGVAMMASSLAVELMTSLLQTKYSGSETTVLGDIPHQIRGFLHNFSILKLETPAYEHCPACSPKVIEAFTDLGWEFVKKALEHPLYLEEISGLSVIKQEVERLGNDVFEWEDDESDEIA
modifications: GST-His6 tag
notes: yeast GST-HisX6 fusion protein on proteome chip
B2: CAK1: yeast GST-HisX6 fusion protein on proteome chip (protein, UniProt P43568 1-368, looked up)
Serine/threonine-protein …: MKLDSIDITHCQLVKSTRTARIYRSDTYAIKCLALDFDIPPHNAKFEVSILNKLGNKCKHILPLLESKATDNNDLLLLFPFEEMNLYEFMQMHYKRDRRKKNPYYDLLNPSIPIVADPPVQKYTNQLDVNRYSLSFFRQMVEGIAFLHENKIIHRDIKPQNIMLTNNTSTVSPKLYIIDFGISYDMANNSQTSAEPMDSKVTDISTGIYKAPEVLFGVKCYDGGVDVWSLLIIISQWFQRETSRMGHVPAMIDDGSDDMNSDGSDFRLICSIFEKLGIPSIQKWEEVAQHGSVDAFVGMFGADGDGKYVLDQEKDVQISIVERNMPRLDEIADVKVKQKFINCILGMVSFSPNERWSCQRILQELEKP
modifications: GST-HisX6 tag
notes: as for B1
B3: MUB1: yeast GST-HisX6 fusion protein on proteome chip (protein, UniProt Q03162 1-620, looked up)
MYND-type zinc finger protein …: MRDSNHRSLTSNKPIVTITSTVYDRRALDINSSIPLINSLNYLTYLTSNSSKVRETVANDGALERLVSILRSCHLSLFELLDLDLENFNEHENIKDLWKEKRLALCAWKWTLTFQCLVLTGTRGTEQIRKKVVMSGVLSVLVTVLDNYLLYHKNYDFIKDQTMTFDFKGITTETMYKFMRKDENETYQQYIEFITGQDKLKLSTDKNFLNERLVAPSMTIPTDFSDIWGRFADLASNFEPDQERHDDDIDIDSEVESENFDAHKNFFSQPDINRPTISTPREFFLGRIVPKQDDVIWSLQLLAFVSKYTYMKSTLQNVELVESLSFRSMAYKIKQRISEENDLEEQERDVTVKLSSLYPYLSKNPENNSKVKALDTSKMDPFFKELEELSNRCQQEEQNEICNNHCPVLNLFERYRVPKPSDDNAYGKDKERINLRKKISDNFERRWSYDKMKKELTNIVYKNKVLTNVVNIFPLVEKYTVSAENTHDVIYWSSVIMRNSCRKNEILGVRQCANFSCGKWEDFPRQFAKCRRCKRTKYCSRKCQLKAWGYHRYWCHEVGSSHMRSTNTTTGVNTPNEPSSLNATATTAADVSNSTSTFTPNISTTVPDEISNRDENSIPE
modifications: GST-HisX6 tag
notes: as for B1
B4: VAC7: yeast GST-HisX6 fusion protein on proteome chip (protein, UniProt P53950 1-1165, looked up)
Vacuolar segregation protein 7: MTEEDRKLTVETETVEAPVANNLLLSNNSNVVAPNPSIPSASTSTSPLHREIVDDSVATANTTSNVVQHNLPTIDNNLMDSDATSHNQDHWHSDINRAGTSMSTSDIPTDLHLEHIGSVSSTNNNSNNALINHNPLSSHLSNPSSSLRNKKSSLLVASNPAFASDVELSKKKPAVISNNMPTSNIALYQTARSANIHGPSSTSASKAFRKASAFSNNTAPSTSNNIGSNTPPAPLLPLPSLSQQNKPKIIERPTMHVTNSREILLGENLLDDTKAKNAPANSTTHDNGPVANDGLRIPNHSNADDNENNNKMKKNKNINSGKNERNDDTSKICTTSTKTAPSTAPLGSTDNTQALTASVSSSNADNHNNNKKKTSSNNNGNNSNSASNKTNADIKNSNADLSASTSNNNAINDDSHESNSEKPTKADFFAARLATAVGENEISDSEETFVYESAANSTKNLIFPDSSSQQQQQQQQPPKQQQQQQNHGITSKISAPLLNNNKKLLSRLKNSRHISTGAILNNTIATISTNPNLNSNVMQNNNNLMSGHNHLDELSSIKQEPPHQLQQQQPPMDVQSVDSYTSDNPDSNVIAKSPDKRSSLVSLSKVSPHLLSSTSSNGNTISCPNVATNSQELEPNNDISTKKSLSNSTLRHSSANRNSNYGDNKRPLRTTVSKIFDSNPNGAPLRRYSGVPDHVNLEDYIEQPHNYPTMQNSVKKDEFYNSRNNKFPHGLNFYGDNNVIEEENNGDSSNVNRPQHTNLQHEFIPEDNESDENDIHSMFYYNHKNDLETKPLISDYGEDEDVDDYDRPNATFNSYYGSASNTHELPLHGRMPSRSNNDYYDFMVGNNTGNNNQLNEYTPLRMKRGQRHLSRTNNSIMNGSIHMNGNDDVTHSNINNNDIVGYSPHNFYSRKSPFVKVKNFLYLAFVISSLLMTGFILGFLLATNKELQDVDVVVMDNVISSSDELIFDITVSAFNPGFFSISVSQVDLDIFAKSSYLKCDSNGDCTVMEQERKILQITTNLSLVEESANNDISGGNIETVLLGTAKKLETPLKFQGGAFNRNYDVSVSSVKLLSPGSREAKHENDDDDDDDGDDGDDENNTNERQYKSKPNARDDKEDDTKKWKLLIKHDYELIVRGSMKYEVPFFNTQKSTAIQKDSMVHPGKK
modifications: GST-His6 tag
notes: as for B1
B5: SPO1: yeast GST-HisX6 fusion protein on proteome chip (protein, UniProt P53541 18-631, looked up)
Putative meiotic …: TAPFQVQCPSSPLIREAKHELCPEETLYLKKKKIKTKNKLIQFLKSLTEAKFSSKFYKRVLKDPPKIGIAISGGGYRSMLVGTGFISQMNDYGLFEYSDYIAGLSGGSWILMDLVVQNFEVKSLLQEWDLEEDLLLGIPEFDISEEEIVTNAKKEYNDNDLKMKKRQGGSLITSSSNFYEQIEEIMNSIEEIPEDYMITKRNLNPLARLKKIFFPNNTFTGTDAKIETFKKVLDFYKSLHLKIKPKKMEGFQISFTDYWGKAIVQRLKKNFDDDPNHSFSFSKLVNSSKKFKECSVPIPIFVANCKNGLLSNVIFEFTPFEFGSWENILRLFVKLPYLGSKIVSGKAEKCINNFDDLGFITATSSSIFNNVLIFIWNLASQSSREAMKALNMVMGIFGLGKEEIFSISKDSSRLETDYAVYQPNPFYLYPEKDNVLTNKNHLYLVDGGEDGENIPLRTLVIPERELDVIFVLDSSSDIDNYPNGSKLKRIFEKLDEENVHYQFPNNVKTFTHPIVIGCNATKRTGHDSFLPIIIYHANANHGNASNTSTFKITYNQSEVSSMLPTGRGVFSNDYDLYYKNCLGCILTKRTMDRLPRKKKFSPFCLQCFKDYCYS
modifications: GST-His6 tag
notes: as for B1
B6: YEL064C: yeast GST-HisX6 fusion protein on proteome chip (protein, UniProt P39981 1-480, looked up)
Vacuolar amino acid …: MSELGEYSKLENKELRTEFELTNFPFPGTTDNDSDDGSQGQNSLNIITPDMDDTLVNDVLRENDKKSSMRMAFMNLANSILGAGIITQPFAIKNAGILGGLLSYVALGFIVDWTLRLIVINLTLAGKRTYQGTVEHVMGKKGKLLILFTNGLFAFGGCIGYCIIIGDTIPHVLRAIFSQNDGNVHFWLRRNVIIVMVTTFISFPLSMKRNIEALSKASFLAVISMIIIVLTVVIRGPMLPYDWKGHSLKLSDFFMKATIFRSLSVISFALVCHHNTSFIFFSMRNRSVAKFTRLTHISIIISVICCALMGYSGFAVFKEKTKGNVLNSFPGTDTAINIARLCFGFNMLTTFPMEIFVLRDVVGNLLHECNLIKNYDEHTQLSGKQHVVITSSLVFITMGISLTTCNLGALFELIGATTASTMAYILPPYTNLLLTSKKKSWKERLPFYLCICFGFMIMIISSTQTIIDAVNGSDGQHCQI
modifications: GST-His6 tag
notes: as for B1
B7: YLR020C: yeast GST-HisX6 fusion protein on proteome chip (protein, UniProt Q07950 1-538, looked up)
Sterol esterase 2: MVNKVVDEVQRLVSAIILTSFMTGLFILSLWKNYVTVHFQHKNDPRDTRSSRTKIQPNDKKKKRPARHSRPLSISSTTPLDLQRDQENNIEYDRTVTSKLSMTSNASLSENGDGNANIKMETNVNQAPYAAENPFQNIALAEDTKLVPDLKYYYKEYGIDIEEFEVETDDGFIIDLWHFKSRLNDGVEEVKREPILLLHGLLQSCGAFASSGRKSLAYFLYESGFDVWLGNNRCGLNAKWNMKKLGNDHSKKWDWDMHQMVQYDLKALINYVLDSTGYAKLSLVAHSQGTTQGFMGLVNGEKLYASDFKLVDKLENFVALAPAVYPGPLLDEKAFVRLMAKGIDSPWYFGRRSFIPLMMTMRKLMVGTKIFSFLSYIMFNYLFDWNDVLWDRVLRDRNFLFSPVHISVKLMQWWLSPLPNKLSFKKGAEKIFPDKKTWFPIAKNDDDSGNNLDNNKLHLNPKRQNSEEFPHIIMFIPKQDRLVDGERLINHFINHEANAVYKIWYIDEYSHLDVLWAHDVIDRIGKPMIENLRFPNAR
modifications: GST-His6 tag
notes: as for B1

System: phosphatidylcholine (PC) liposomes
Experiment: Yeast proteome chip probed with PC liposomes
Settings: liposome binding signal on yeast proteome chip, Cy3-streptavidin detection
In short: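 Signal comes from Cy3- or Cy5-streptavidin recognising 1% (w/w) biotin-DHPE carried in every liposome. Liposomes were PC alone or PC containing 5% (w/w) of a single phosphoinositide, applied to arrayed GST-fusion yeast proteins for 1 h at RT.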

Molecule | PC
B1 | 5.87
B2 | 854.02
B3 | 2.64
B4 | −1.17
B5 | 5.58
B6 | 5.28
B7 | 7.34

System: PI(4)P liposomes
Experiment: Yeast proteome chip probed with PI(4)P liposomes
Settings: liposome binding signal on yeast proteome chip, Cy3-streptavidin detection

Molecule | PI(4)P
B1 | 18.29
B2 | 1431.44
B3 | 19.38
B4 | 28.74
B5 | 0.44
B6 | −3.92
B7 | −5.66

System: PI(3,4)P2 liposomes
Experiment: Yeast proteome chip probed with PI(3,4)P2 liposomes
Settings: liposome binding signal on yeast proteome chip, Cy3-streptavidin detection

Molecule | PI(3, 4)P2
B1 | −0.63
B2 | 245.20
B3 | 9.89
B4 | 19.62
B5 | 18.99
B6 | −3.14
B7 | 2.67

System: PI(4,5)P2 liposomes
Experiment: Yeast proteome chip probed with PI(4,5)P2 liposomes
Settings: liposome binding signal on yeast proteome chip, Cy3-streptavidin detection

Molecule | PI(4, 5)P2
B1 | 59.23
B2 | 233.85
B3 | −4.79
B4 | 21.99
B5 | 14.37
B6 | 6.53
B7 | 15.68

System: PI(3)P liposomes
Experiment: Yeast proteome chip probed with PI(3)P liposomes
Settings: liposome binding signal on yeast proteome chip, Cy3-streptavidin detection

Molecule | PI(3)P
B1 | −22.50
B2 | 99.50
B3 | −6.00
B4 | 28.75
B5 | −6.50
B6 | −5.00
B7 | 3.75

System: PI(3,4,5)P3 liposomes
Experiment: Yeast proteome chip probed with PI(3,4,5)P3 liposomes
Settings: liposome binding signal on yeast proteome chip, Cy3-streptavidin detection

Molecule | PI(3, 4, 5)P3
B1 | 0.45
B2 | 269.10
B3 | 9.79
B4 | 13.16
B5 | −9.22
B6 | −0.90
B7 | 1.24
